The target of the test is T1, SOX10 epitope peptide QGGTAAIQAHYKSAH (human).
T1 construct: One of the overlapping peptides of about 15 amino acids covering human SOX10 147-253
T1 peptide: QGGTAAIQAHYKSAH
Kind of test: epitope mapping with overlapping SOX10 peptides, direct ELISA and dot blot. The text has this:
In order to determine the peptide sequence of SOX10 that is recognized by anti-SOX10 antibodies such as BC34, epitope mapping may be conducted perhaps using two assays: direct ELISA and even dot blot. In an ELISA assay, the sensitivity and specificity of the anti-SOX10 [BC34] antibody may be determined by measuring the antibody titer at about 1:500 and about 1:1000. Overlapping peptides at a length of about 15 amino acids each, covering the human SOX10 protein sequence from perhaps 147 to 253 amino acids, may be used to determine a sequence of BC34 binding.
In general terms: In an ELISA, binding on a coated surface is turned into a signal by an enzyme label.

B1: mouse monoclonal anti-SOX10 antibody BC34 (antibody, V domains shown)
VH: QVTLKESGPGILQPSQTLSLTCSFSGFSLSTFLIGVGWIRQPSGKGLEWLAHIWWNDNKYYNTALKNRLTISKDTSNNQVFLKIASVDTTDTATYYCVRMAGIGGTDAMDYWGQGTSVTVSS
VL: DIVLTQSPASLAVSLGQRATISCRASEIVEYYGTNLLQWYQQKPGQPPKLLIYAASNVESGVPARFSGSGSGTDFSLNIHPVEEDDIAIYFCQQSRKVPWTFGGGTKLEIK
notes: also called anti-SOX10 antibody [clone BC34]; SOX10 [BC34]
As for B1, the binding result is on record as “binds”.

For the origin of these results see US20160216269A1 (BIOCARE MEDICAL, published 2016).
